Measured values reported in the supplement of paper PMC5998384.

Columns and labels:
HeLa Kyoto [1] = experiment: solubility in G1/S (NP-40 vs SDS abundance) (log2 ratio); higher = more soluble; settings: cell cycle stage: G1/S
HeLa Kyoto [2] = experiment: melting temperature (median over replicates), in situ; higher = more thermally stable
HeLa Kyoto [3] = experiment: solubility change mitosis vs G1/S (difference of NP-40 vs SDS log2 ratios) (log2 ratio difference); higher = more soluble in mitosis
HeLa Kyoto [4] = experiment: thermal stability score vs G1/S (z-score of summed log2 fold changes over temperatures); higher = more thermally stable than in G1/S
[5] = cell cycle stage: early G1 (4.5 h after nocodazole release)
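Throughout, for melting temperature (median over replicates), in situ: HeLa Kyoto cells synchronized by double thymidine or nocodazole block, proteins quantified by TMT10plex mass spectrometry, three independent biological replicates.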
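Throughout, for solubility change mitosis vs G1/S (difference of NP-40 vs SDS log2 ratios): synchronized HeLa Kyoto cells (double thymidine block for G1/S, nocodazole release for mitosis), protein amounts in NP-40 versus SDS lysates quantified by mass spectrometry, three biological replicates.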
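Throughout, for solubility in G1/S (NP-40 vs SDS abundance): HeLa Kyoto cells arrested at G1/S by double thymidine block, proteins quantified by TMT10plex mass spectrometry in mild NP-40 versus SDS extracts, three biological replicates.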
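Throughout, for thermal stability score vs G1/S (z-score of summed log2 fold changes over temperatures): synchronized HeLa Kyoto cells, proteins quantified by TMT10plex mass spectrometry, three biological replicates, mitosis taken 0.5 h after nocodazole release, G1/S directly after double thymidine block.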

Sequence of MMTAG2 (chain, as listed by the source): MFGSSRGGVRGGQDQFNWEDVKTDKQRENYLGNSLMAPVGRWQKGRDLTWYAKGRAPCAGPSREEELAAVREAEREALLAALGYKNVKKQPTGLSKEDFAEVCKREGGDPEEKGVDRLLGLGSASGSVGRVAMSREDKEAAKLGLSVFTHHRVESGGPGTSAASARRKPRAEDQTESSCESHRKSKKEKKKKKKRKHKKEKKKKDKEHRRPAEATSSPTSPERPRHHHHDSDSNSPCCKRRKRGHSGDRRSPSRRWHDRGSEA

Substance	solubility in G1/S (log2) (HeLa Kyoto [1])	melting temperature (HeLa Kyoto [2]; cell cycle stage: G1/S) [°C]	melting temperature (HeLa Kyoto [2]; cell cycle stage: mitosis) [°C]	solubility change mitosis (log2) (HeLa Kyoto [3])	thermal stability score (HeLa Kyoto [4]; [5])	thermal stability score (HeLa Kyoto [4]; cell cycle stage: mitosis)
METGTAPLVAPPRRHGAPAAPSPPPRGSRAGPVVVVAPGPPVTTATSAPVTLVAPGEARPAWVPGSAETSAPAPAPAPAPAPAVTGSTVVVLTLEASPEAPKPQLPSGPESPEPAAVAGVETSRALAAGADSPKTEEARPSPAPGPGTPTGTPTRTPSRTAPGALTAKPPLAPKPGTTVASGVTARSASGQVTGGHGAAAATSASAGQAPEDPSGPGTGPSGTCEAPVAVVTVTPAPEPAENSQDLGSTSSLGPGISGPRGQAPDTLSYLDSVSLMSGTLESLADDVSSMGSDSEINGLALRKTDKYGFLGGSQYSGSLESSIPVDVARQRELKWLDMFSNWDKWLSRRFQKVKLRCRKGIPSSLRAKAWQYLSNSKELLEQNPGKFEELERAPGDPKWLDVIEKDLHRQFPFHEMFAARGGHGQQDLYRILKAYTIYRPDEGYCQAQAPVAAVLLMHMPAEQAFWCLVQICDKYLPGYYSAGLEAIQLDGEIFFALLRRASPLAHRHLRRQRIDPVLYMTEWFMCIFARTLPWASVLRVWDMFFCEGVKIIFRVALVLLRHTLGSVEKLRSCQGMYETMEQLRNLPQQCMQEDFLVHEVTNLPVTEALIERENAAQLKKWRETRGELQYRPSRRLHGSRAIHEERRRQQPPLGPSSSLLSLPGLKSRGSRAAGGAPSPPPPVRRASAGPAPGPVVTAEGLHPSLPSPTGNSTPLGSSKETRKQEKERQKQEKERQKQEKEREKERQKQEKEREKQEKEREKQEKERQKQEKKAQGRKLSLRRKADGPPGPHDGGDRPSAEARQDAYF [TBC1D10B]	0.0909	51.2	52.2	-0.137	0.22	0.904
MEPRAVAEAVETGEEDVIMEALRSYNQEHSQSFTFDDAQQEDRKRLAELLVSVLEQGLPPSHRVIWLQSVRILSRDRNCLDPFTSRQSLQALACYADISVSEGSVPESADMDVVLESLKCLCNLVLSSPVAQMLAAEARLVVKLTERVGLYRERSFPHDVQFFDLRLLFLLTALRTDVRQQLFQELKGVRLLTDTLELTLGVTPEGNPPPTLLPSQETERAMEILKVLFNITLDSIKGEVDEEDAALYRHLGTLLRHCVMIATAGDRTEEFHGHAVNLLGNLPLKCLDVLLTLEPHGDSTEFMGVNMDVIRALLIFLEKRLHKTHRLKESVAPVLSVLTECARMHRPARKFLKAQVLPPLRDVRTRPEVGEMLRNKLVRLMTHLDTDVKRVAAEFLFVLCSESVPRFIKYTGYGNAAGLLAARGLMAGGRPEGQYSEDEDTDTDEYKEAKASINPVTGRVEEKPPNPMEGMTEEQKEHEAMKLVTMFDKLSRNRVIQPMGMSPRGHLTSLQDAMCETMEQQLSSDPDSDPD [RIC8A]	-0.322	51.6	49.6	0.342	1.87	-0.505
MTAEDSTAAMSSDSAAGSSAKVPEGVAGAPNEAALLALMERTGYSMVQENGQRKYGGPPPGWEGPHPQRGCEVFVGKIPRDVYEDELVPVFEAVGRIYELRLMMDFDGKNRGYAFVMYCHKHEAKRAVRELNNYEIRPGRLLGVCCSVDNCRLFIGGIPKMKKREEILEEIAKVTEGVLDVIVYASAADKMKNRGFAFVEYESHRAAAMARRKLMPGRIQLWGHQIAVDWAEPEIDVDEDVMETVKILYVRNLMIETTEDTIKKSFGQFNPGCVERVKKIRDYAFVHFTSREDAVHAMNNLNGTELEGSCLEVTLAKPVDKEQYSRYQKAARGGGAAEAAQQPSYVYSCDPYTLAYYGYPYNALIGPNRDYFVKAGSIRGRGRGAAGNRAPGPRGSYLGGYSAGRGIYSRYHEGKGKQQEKGYELVPNLEIPTVNPVAIKPGTVAIPAIGAQYSMFPAAPAPKMIEDGKIHTVEHMISPIAVQPDPASAAAAAAAAAAAAAAVIPTVSTPPPFQGRPITPVYTVAPNVQRIPTAGIYGASYVPFAAPATATIATLQKNAAAAAAMYGGYAGYIPQAFPAAAIQVPIPDVYQTY [RBM47]	-0.0256	48.2	47.4	-0.0191	0.77	1.83
MMTAG2	-1.03	53	51.3	0.48	-3.08	-5.63
UGGT1	-0.0908	54.2	55	-0.156	3.04	4.09
